Assay results as given in patent US20220249369.

Target: T1, OmpTs, DABCYL-RRSRRV-K(5-FAM)
T1 chain: RRSRRVK

B1: Outer Membrane Protease T (protein)
chain: STETLSFTPDNINADISLGTLSGKTKERVYLAEEGGRKVSQLDWKFNNAAIIKGAINWDLMPQISIGAAGWTTLGSRGGNMVDQDWMDSSNPGTWTDESRHPDTQLNYANEFDLNIKGWLLNEPNYRLGLMAGYQESRYSFTARGGSYIYSSEEGFRDDIGSFPNGERAIGYKQRFKMPYIGLTGSYRYEDFELGGTFKYSGWVESSDNDEHYDPGKRITYRSKVKDQNYYSVAVNAGYYVTPNAKVYVEGAWNRVTNKKGNTSLYDHNNNTSDYSKNGAGIENYNFITTAGLKYTF
- cleavage of quenched fluorescent substrate: a substrate (RRSRRVK (SEQ ID NO:9)) specific for the E. coli surface protease OmpT
